Measured values as given in patent publication US20220249679A1 (MITSUBISHI TANABE PHARMA, published 2022).
Where “and” joins values, the source holds several entries; their conditions need not be identical. Identical values can stand only once.

T1: hCD138 peptide AGEGPKEGEAVVLP (human)
T1 construct: Portion of the linear CD138 peptide used for immunization; also the peptide in the crystal structure; also called syndecan-1 peptide
T1 peptide: AGEGPKEGEAVVLP

T2: Human CD138-Fc protein (human, UniProt P18827 23-254)
T2 construct: also called hCD138-Fc
T2 sequence: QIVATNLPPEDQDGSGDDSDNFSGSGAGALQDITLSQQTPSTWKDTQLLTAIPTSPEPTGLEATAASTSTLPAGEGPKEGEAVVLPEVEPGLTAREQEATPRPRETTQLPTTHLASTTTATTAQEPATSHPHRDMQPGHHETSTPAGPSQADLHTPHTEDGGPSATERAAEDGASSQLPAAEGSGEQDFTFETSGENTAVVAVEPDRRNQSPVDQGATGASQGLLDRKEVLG

T3: Cynomolgus monkey CD138 on transfected Expi293 cells (cynomolgus monkey, UniProt P18827 23-310 (human entry))
T3 construct: also called cyno CD138
T3 chain: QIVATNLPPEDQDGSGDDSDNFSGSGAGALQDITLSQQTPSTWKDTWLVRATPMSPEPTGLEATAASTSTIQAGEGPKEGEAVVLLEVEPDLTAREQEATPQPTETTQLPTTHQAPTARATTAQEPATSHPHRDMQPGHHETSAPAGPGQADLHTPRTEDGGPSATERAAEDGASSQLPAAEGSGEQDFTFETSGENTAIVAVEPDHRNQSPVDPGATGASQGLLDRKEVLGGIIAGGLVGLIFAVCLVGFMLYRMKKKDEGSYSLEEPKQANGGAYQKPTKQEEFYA

T4: Human syndecan-1 (CD138) on the cell surface (human, UniProt P18827 23-310)
T4 construct: Endogenous on H929, KMS-11 and RT112/84 cells or transfected into Expi293 cells; also called human CD138; hCD138
T4 sequence: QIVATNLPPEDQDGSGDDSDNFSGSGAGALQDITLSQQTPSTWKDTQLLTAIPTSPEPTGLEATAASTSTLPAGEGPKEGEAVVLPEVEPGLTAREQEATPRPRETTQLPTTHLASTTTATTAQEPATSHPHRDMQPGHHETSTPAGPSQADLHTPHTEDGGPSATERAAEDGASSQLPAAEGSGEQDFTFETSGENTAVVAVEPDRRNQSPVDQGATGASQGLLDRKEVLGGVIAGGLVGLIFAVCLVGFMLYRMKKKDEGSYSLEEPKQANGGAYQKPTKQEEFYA

T5: Human CD138 His (human, UniProt P18827 23-254)
T5 construct: also called hCD138
T5 sequence: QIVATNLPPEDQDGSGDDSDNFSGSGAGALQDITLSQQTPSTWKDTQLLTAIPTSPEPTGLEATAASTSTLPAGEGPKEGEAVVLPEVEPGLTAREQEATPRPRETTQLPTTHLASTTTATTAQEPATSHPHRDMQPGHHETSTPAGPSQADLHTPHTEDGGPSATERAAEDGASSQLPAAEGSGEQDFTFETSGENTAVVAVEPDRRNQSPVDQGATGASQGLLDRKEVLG

T6: Mouse CD138 His (mouse, UniProt P18828 23-255)
T6 construct: also called mCD138
T6 sequence: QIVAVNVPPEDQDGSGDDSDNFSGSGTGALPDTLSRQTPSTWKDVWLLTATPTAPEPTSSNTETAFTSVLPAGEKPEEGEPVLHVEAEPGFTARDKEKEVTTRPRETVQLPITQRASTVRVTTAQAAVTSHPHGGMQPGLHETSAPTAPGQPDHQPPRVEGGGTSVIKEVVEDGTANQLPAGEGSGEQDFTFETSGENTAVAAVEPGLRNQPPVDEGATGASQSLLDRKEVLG

T7: Negative control peptide QAAVTSHPHGGMQPGLHETSA (mouse)
T7 construct: also called mouse CD138 peptide
T7 peptide: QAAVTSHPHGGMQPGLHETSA

T8: Mouse CD138 (ELISA binding assay, data not shown) (mouse, UniProt P18828 23-255, limits assumed)
T8 construct: Construct used in the ELISA is not described
T8 sequence: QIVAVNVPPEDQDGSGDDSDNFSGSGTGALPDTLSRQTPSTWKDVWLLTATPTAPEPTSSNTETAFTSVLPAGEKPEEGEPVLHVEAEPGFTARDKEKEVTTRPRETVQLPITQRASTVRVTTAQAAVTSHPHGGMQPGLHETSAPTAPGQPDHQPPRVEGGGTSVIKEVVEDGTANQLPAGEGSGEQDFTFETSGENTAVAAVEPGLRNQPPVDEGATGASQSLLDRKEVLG

T9: hCD138 (ELISA of Table 29) (human, UniProt P18827 23-254, limits assumed)
T9 construct: also called human CD138
T9 sequence: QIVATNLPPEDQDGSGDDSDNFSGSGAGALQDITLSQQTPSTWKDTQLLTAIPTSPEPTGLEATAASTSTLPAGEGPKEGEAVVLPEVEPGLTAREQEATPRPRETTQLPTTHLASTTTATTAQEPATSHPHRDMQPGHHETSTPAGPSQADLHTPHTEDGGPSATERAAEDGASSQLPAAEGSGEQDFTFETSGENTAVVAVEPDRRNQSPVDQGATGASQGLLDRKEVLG

T10: Human FGFR3c on transfected CHO cells (human, UniProt P22607 23-375)
T10 sequence: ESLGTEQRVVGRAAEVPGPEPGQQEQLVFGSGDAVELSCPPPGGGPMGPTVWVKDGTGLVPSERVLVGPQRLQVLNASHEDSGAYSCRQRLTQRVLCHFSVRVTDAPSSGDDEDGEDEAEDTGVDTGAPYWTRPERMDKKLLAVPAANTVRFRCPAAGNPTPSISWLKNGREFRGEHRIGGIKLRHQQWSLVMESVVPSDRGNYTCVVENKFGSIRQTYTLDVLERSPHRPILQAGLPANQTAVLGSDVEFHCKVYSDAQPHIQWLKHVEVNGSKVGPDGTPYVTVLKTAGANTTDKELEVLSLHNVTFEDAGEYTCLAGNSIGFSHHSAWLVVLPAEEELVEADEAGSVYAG

T11: Human FGFR3b on transfected CHO cells (human)
T11 chain: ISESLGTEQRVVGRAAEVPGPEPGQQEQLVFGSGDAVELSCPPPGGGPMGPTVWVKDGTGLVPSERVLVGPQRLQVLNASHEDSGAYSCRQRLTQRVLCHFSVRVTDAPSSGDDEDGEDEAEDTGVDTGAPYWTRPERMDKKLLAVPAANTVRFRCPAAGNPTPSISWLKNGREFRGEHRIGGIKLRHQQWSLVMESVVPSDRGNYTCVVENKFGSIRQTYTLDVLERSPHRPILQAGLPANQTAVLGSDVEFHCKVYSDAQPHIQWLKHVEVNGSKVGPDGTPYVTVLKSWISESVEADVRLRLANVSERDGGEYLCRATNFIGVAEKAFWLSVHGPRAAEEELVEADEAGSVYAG


Columns and labels:
[1] = biological target: T1, hCD138 peptide AGEGPKEGEAVVLP; assay: ELISA, plate-coated hCD138 peptide
Method: (§1) A CD138 binding ELISA was performed with 9 representative humanized antibodies to determine binding to portion of the linear CD138 peptide used for immunization (FIG. 7). […] Coated plates were incubated with various dilutions of each of the 9 representative antibodies overnight and binding was detected with a goat anti-human IgG (H+L)-HRP. EC50s were determined using four parameter fit curves (Table 21). An ELISA was also performed to detect binding to plate-coated human CD138-Fc protein (Table 21).

[2] = biological target: T2, Human CD138-Fc protein; assay: ELISA, plate-coated human CD138-Fc
Method: as §1

[3] = biological target: T3, Cynomolgus monkey CD138 on transfected …; assay: FACS titration on Expi293 cells transfected with cynomolgus CD138
Excerpt: Briefly, a vector directing the cell-surface expression of human CD138 or cyno CD138 was transfected in Expi293 cells.

[4] = biological target: T4, Human syndecan-1 (CD138) on the cell …; assay: FACS on KMS-11 cells (previous experiments); KMS-11 multiple myeloma cells, previous experiments
[5] = biological target: T4, Human syndecan-1 (CD138) on the cell …; assay: FACS on RT112/84 cells (previous experiments); RT112/84 bladder cancer cells (printed RT-122/84), previous experiments
[6] = biological target: T5, Human CD138 His; assay: SPR, summary table
Method: (§2) Murine IgGs were purified from the hybridoma supernatants and the IgGs were subject to SPR (surface plasmon resonance) for kinetic binding measurements. Human or mouse CD138 His was immobilized on a GLM chip at […] on a BioRad Proteon. […] KDs were measured using bivalent analyte fit.

[7] = biological target: T6, Mouse CD138 His; assay: SPR, mouse CD138 His immobilized
Method: as §2

[8] = biological target: T7, Negative control peptide …; assay: told in the method of the peptide ELISA
Method: as §1

[9] = biological target: T5, Human CD138 His; assay: SPR (BioRad Proteon), CD138 His immobilized, bivalent analyte fit
Method: as §2

[10] = biological target: T8, Mouse CD138 (ELISA binding assay, data …); assay: ELISA binding assay
[11] = biological target: T6, Mouse CD138 His; assay: SPR, summary table
Method: as §2

[12] = biological target: T6, Mouse CD138 His; assay: SPR (BioRad Proteon), mouse CD138 His immobilized, bivalent analyte fit
Method: as §2

[13] = biological target: T9, hCD138 (ELISA of Table 29); assay: hCD138 ELISA
[14] = biological target: T10, Human FGFR3c on transfected CHO cells; assay: FACS histogram on CHO cells expressing human FGFR3c (panel title FGFR3c K.I.); concentration not given
Excerpt: (§3) CHO cells (Chinese Hamster Ovary cells) were transfected to express the human FGFR3c (FIG. 16A) or human FGFR3b (FIG. 16B) on the cell surface.

[15] = biological target: T11, Human FGFR3b on transfected CHO cells; assay: FACS histogram on CHO cells expressing human FGFR3b (panel title FGFR3b K.I.); concentration not given
Excerpt: as §3

| Binder | Kd [6] | Kd [9] | koff [9] | kon [9] | other results |
| --- | --- | --- | --- | --- | --- |
| 12P16F6 hIgG1 (antibody, V domains shown, Chimeric antibody: murine variable regions of F12P16F6 with constant regions of human IgG1, kappa isotype; also called chF6; chP16F6) VH: QVQLQQSGAEVVKPGASVKLSCKASGYTFTSYYLYWVKKGPGQGLDWIGEIYPRSGGTNINEKFLSKATLTADESSSTAYLQLSSLTSEDSAVYYCTRSLLYWGQGTTLIVSS VL: not shown | – | – | – | – | EC50 [1]: 0.599 nM; EC50 [2]: 0.471 nM; binding result [3]: binds; EC50 [4]: ~3 nM; EC50 [5]: ~9 nM |
| F12P16F6 (antibody, V domains shown, Murine hybridoma antibody (IgG); tested as hybridoma supernatant in FACS and as purified murine IgG in SPR) VH: QVQLQQSGAEVVKPGASVKLSCKASGYTFTSYYLYWVKKGPGQGLDWIGEIYPRSGGTNINEKFLSKATLTADESSSTAYLQLSSLTSEDSAVYYCTRSLLYWGQGTTLIVSS VL: not shown | 21 nM | 21 nM | 0.00117 s⁻¹ | 55700 M⁻¹ s⁻¹ | binding result [7]: no binding (tested: 167 nM); binding result [8]: no binding |
| 13P30A7 hIgG1 (antibody, V domains shown, Chimeric antibody: murine variable regions of F13P30A7 with constant regions of human IgG1, kappa isotype; also called chP30A7; chP30a7) VH: EVQLVESGGGLVQPKGSLKLSCAASGFTFNTYAMNWVRQAPGKGLEWIARIRSKSNNYATYYADSVKDRFTISRDDSQSLLYLQMNNLKTEDTAIFYCVTDYGYVYFDAWGAGTTVTVSS VL: NIIMTQSPKSMAMSVGERVTLSCKASENVGNYVSWYQQKPEQSPKLLIYGASYRYTGVPDRFTGSGSGTDFTLTISSVQAEDLADYHCGQSSRYPLTFGAGTKLELKR | – | – | – | – | binding result [3]: binds |
| F13P18D8 (antibody, V domains shown, Murine IgG purified from hybridoma supernatant) VH: EVQLLESGGGLVQPEGSLKLSCAASGFAFNTYAMNWVRQAPGKGLEWLARIRSKSNNYATYYADSVKDRFTISRDDSQGMLYLQMNNLKTEDTAMYYCVTDYYYVYFDVWGAGTTVTVSS VL: NIVMTQSPKSMSMSVGERVTLSCKASENVGTYVSWYQQKSDQSPKLLIYGASNRYTGVPDRFTGSGSATDFTLTITSVQSEDLADYHCGQSSRYPLTFGAGTKLELKR | 2 nM | 1.88 nM and 1.9 nM | 0.000523 s⁻¹ | 278000 M⁻¹ s⁻¹ | binding result [10]: no binding |
| F13P14D3 (antibody, V domains shown, Murine IgG purified from hybridoma supernatant) VH: EVQLVESGGGLVQPKGSLKLSCATSGFTFNTYAMNWVRQAPGKGLEWVARIRSKSNNYATYYVDSVKDRFTISRDDSQSTVHLQMNNLKTEDTAIYYCVTDYGHVYFDVWGAGTTVTVSS VL: NIVMTQSPKSMSMSVGQRVTLSCKASENVGSYVSWYQQKPEQSPKLLIYGASNRNTGVPDRFTGSGSATDFTLTISSVQAEDLADYHCGQSSRYPLTFGGGTKLELKR | 10 nM | 9.67 nM and 9.7 nM | 0.00104 s⁻¹ | 107000 M⁻¹ s⁻¹ | binding result [10]: no binding |
| F12P18D4.a (antibody, V domains shown, Murine IgG purified from hybridoma supernatant) VH: EVQLQQSGPELVKPGASVKMSCKASGYTFADYYMKWVKQSHGKSLEWIGDINPNSGDTFYNHKFKGKATLTVDKSSSTAYMQLNSLTSEDSAVYYCARTYYDYWGQGTTLTVSS VL: not shown | 29 nM | 28.6 nM | 0.018 s⁻¹ | 631000 M⁻¹ s⁻¹ | Kd [11]: 672 nM; Kd [12]: 672 nM |
| hF6-HN-G7 (bispecific antibody, human IgG1, kappa, G7 Fynomer fused through the linker to the N-terminus of the hF6 heavy chain; IgG1/kappa) heavy: not shown light: DVVMTQTPLSLSVTPGQPASISCKSSQSLLASDGKTYLNWLLQRPGQSPKRLIYLVSKLDSGVPNRFSGSGSGTDFTLQISRVEAEDVGLYYCWQGAHFPFTFGSGTKLEIKRTVAAPSVFIFPPSDEQLKSGTASVVCLLNNFYPREAKVQWKVDNALQSGNSQESVTEQDSKDSTYSLSSTLTLSKADYEKHKVYACEVTHQGLSSPVTKSFNRGEC | – | – | – | – | EC50 [13]: 0.69 nM; binding result [14]: binds; binding result [15]: binds |
